Laboratory results: the DeepSol protein solubility set

Assay: soluble on expression in E. coli; label from the status in PepcDB or PDB records

| Sequence | soluble on expression in E. coli |
| --- | --- |
| MGSDKIHHHHHHMQNVGLVMGKSSITDFSFAVNPSAIPKFGEYVTAINRDGEEVIGIVREISNFNRMILDEGFSFEYLVKNLDFSRRLIEKNDVIVATATVIGVVKDGEVYPNRTPIKPNSEVFLADDDVLSSLFKCDRGVELGRMIARPDISVSLDIKQLVLRHFAILSVTGGGKSNTVAVLVNDIVKKLNGTVVLIDPHGEYVGYTFEDGSERGKNVVPAGIRPERLEPWEFASLVGVDREKAAVQRMHLERIFTTVRHEGKAGREFVERVLDIAEEWINIAAGKGEAEYYDFNGIKRVATLDRQDLNALARIKEYVSSFMRRYEDLLSQNDMLANIKPSYLNVVNLSGFDEGQMRVVVAYLLRNLLVGRINYVRGKKGWEKICPAIVKPLLVIFEEGHIFAPKGVNNDVVSWMGRIAREGRKFGIGLGIVSQRPKRLNDDVLSQCNTKIILRITEPNDQRYVQHASEQISEDLLKDIASLGVGEAVVVGPAVKLPVAVKIRKFAGNYGGRDIDVVEEWLGREEEQKKQVTLEDLAV | not soluble |
| MPRKPKRPCSFPGCPELTDGRYCDMHQRQMDAYYNKYERDPQTRKRYDRRWKRIRDRYISEHPLCEECQKYGRLTPAEEVHHIIPLSKGGTNADSNLMSLCKQCHSSITAREGERWARR | not soluble |
| MDKELNPSIGDYTGRTVDTLQNAVYIRLMTPLGSWWADKTLGSLLHLLQREKDLQRVSLLAEQYADEALQPIVKSGRADKITVRAEQPHDGRLILHIRMDTAAGGFDYRHEVPVI | not soluble |
| MKFNIRGENIEVTPALKEYVEKKLSKLERYFDTFPEIKVNLKVYSDKQRVEVTIPFTDLLLRAEETNSDMYAAIDLVVDKIERQIRKHKTKVNRKLREKGSIKTNFILPEAVAVLDEVEEDELELVRTKRFDLKPMDVEEAILQMDMLGHNFFVFTNADTNETNVVYGRKDGKYGLIETKLEHHHHHH | soluble |
| YSFIGNPVFKKPFELDEMREYYLNFFERRGHGRIERYPVVARWRTDIYLTIASIADFQPFVTSGVAPPPANPLTISQPCIRLDDLDSVGRTGRHLTLFEMMAHHAFNYPGKEIYWKNETVAYCTELLNELGVKKEDIVYKEEPWAGGGNAGPCLEAIVGGLEVATLVFMNLEEHPEGDIEIKGARYRKMDNYIVDTGYGLERFVWASKGTPTVYDAIFPEVVDTIIDNSNVSFNREDERVRRI | not soluble |
| MEQFPNSLSITLLGSAGGAAKAVLAILNQAIANEKDPIYEVLKNAKFHLVDIKQKDRTYYDELFSNLKGQLYLYEINLQNVVEFKQHLKEKRTSVVIDVSGADTIRVLSCCNELGICYINSALENEAVDQDDSLIGFQLTERYTRFEKEKEKFTNTKAIIGSGMNPGVVQWMVVELMKERPNERPRACYIVEHDTSFLNDTALIKPHTLYASWAVERFLDEAIWSYPMYMSHHRPLYFYEDVYASEYKVKLGEKEFYGCLMPHEEVLILGKNFNMEVGFLYRINEYTTNIIRQNLDQVEDLWNWNRKVFNPAEEEVAGEDLVGVLLVYENSETYMYNVMNSSQVFRKYKTNATYFQVGCGIYAGLSSLLLDQFEQGAYYVEELLLNTESKYGEYLNLYMKDFVIGHNNFTDGLLHDRVRWM | not soluble |
| MSSWAKVIYGASTELDAKVVELNVGGQFYTTTMGTLMKHPGSKFSEILSRSARHYKDAQGRFFIDRPGTYFGLLLDYLRTGQVPTEYVPEVYQEAKFYQIHLLVKILEDMPQIFGEQVARTQFLMGVPNYRENLEVLLHLARAEAVAMRSSKVVVCVVRTEEEDAKCVKPLHILEAKKTPVVKFGPWKAGPMTEDFVCCLEKDIRAKGYKVTSQRYYLSRDPYTCFWIFVFTWW | not soluble |
| MSFVQIRHISSQINRKTVSIVGSGPSGFYTAYHLLKKSPIPLNVTIWEKLPVPFGLSRYGVAPDHPEVKNCEETFTTCAEEFSSPTNQKHKFSFVGGITIGKEILLKELLDNQDAVILSYGCTGDRKLNIPGELGTKGVFSSREFVNWYNGHPDFAKDKRFTDFDWSKVSKVGIIGNGNVALDITRVLISNQIDEIWENTDISSLALNLLRRAPVKDVKLIARRDFVHSKFTNKELRELWELEKYGIRGRIDPKFFQKEMFDPSKYDRAFNRRVEMCSEYLKPFNERSKKNYKKAPPPSSGYDKFWELDYLKTPLKINRDDFGAINSLSLCNNRLNEDNSLQPLKDVNNIMTYKVDLLITSLGYAGVPMPEFSKLSIGFDKDHIANKQGRVLTSSGEIFPHLYASGWIRKGSQGVIASTMQDAFEVGDRVIQDLVVSGALSLENSIDLSNIKHTTWKDWERINKKELLRGKKEHKTRSKFLTFEELWNGVEGI | soluble |
| AHHHHHHGSSMELFEVHEGKAKVLVPKAKTIYDSPVFYNPRMAPNRDVVVLLLNVLKPKIVLDALSATGIRGIRFALETPAEEIWMNDINELAYELMKKNVLLNFKGTLKENAKRAIFEGEKTIVINNDDANRLMAEKHRYFHFIDLDPFGSPMEFLDTALRSVKRKGILGVTATDGAPLCGAHPKACLRKYLAVPLRGELCHEVGTRILVGVIARYAAKYDLGMEVLLAYYKDHYFRAFVKLKDGAKKGDETLENLGYVYFDEKTGRFEVEKSFLSTRPNAYGPLWLGPLKNEKVVGEMLELLVSGFEVANYREVLKLLHMLHEELDIPLFYDTHALGKRLKIEPKKLGEIIKELKSMGYEATRTHFSPTGIKTNAPYEVFVEVMRKN | soluble |
| MDVTALCHKIFLHIHGLISADRYSLFLVCEDSSKDKFLISRLFDVAEGSTLEEASNNCIRLEWNKGIVGHVAAFGEPLNIKDAYEDPRFNAEVDQITGYKTQSILCMPIKNHREEVVGVAQAINKKSGNGGTFTEKDEKDFAEYLAFCGEVLHNAQLYETSLLENKRNLEHHHHHH | soluble |
| SKRVNSCVKDEEHVLEELETEGERQLKSLLQHQLDTSVSIEECVSKKKSFAPGTMYKPFGKEAAGTMTLSQFQTLHEKDQETASLRELGLNETEILIWKSHVSGEKRTKLRATPEAIQKRLEDIKERISERQRILCLPQRFSKSKQLTRREMEIEKSLFQGTDRHSFLKALYYQDEPPKKNKGDPMNNLEHFYRETIMKKRLEEFQLLRGESFACHSLVSAASVSGSGTAEKPSLLQDKGKQAAQGKGPRLHVAKLIDFPTEQYWTGPKTLKQPIEFIPEDEIQRNRLSEEEIRNIPMFSSYNPGEPNKVLYLKNLSPRVKERDLISLFARFQEKKGPPIQFRMMTGRMRGQAFLTFPNKDIAWQALHQINGYKLYGKILVIEFAKSKKQQSAVQRSSLITSAPDGRTEINGS | soluble |
| GPGSMSASSAPDRVYVGKRLHFTNGSRQLVRCGTRNIAVVCNRNELYAIDNACYHHGGPLLLGDIEEMGGHPCIVCPWHSYKIALDTGEGLYLGVELSPAGGTPKQVVRSKGCKQRVHKVEVDEADDVYVLVDLSGPTLESDTYASMELANRERPMSLPVDGGGRGLRVPGIHSHAGVELRSGQVFQHMGSLAEAGGNTGTRGANSLDHAQKTRPHEITSRGSSCSSPTTRLMVSCVAITDVCPQVRQFDFVHHAGPLLRHAELGEYVELELPIKERRTANGGGGQAVDLLSSSSAPAATAGEPMRRRWTICDMNHNSTLFSIIVKAAGTDTQASGSAWLHEHSLSVPLPITRVGGTFTFARHRDTIRRVGGRVLWLTAGVGMTPAYAFLNASLGNSLYVASAEPLHVVHLHSNRTLETVPKLEQFGRWQREFPRSALDTAEKTSGGSGARKPGKTYVMELFIALSTDAGQGQRTSPGSSPPDSCPVATITHRSRLQPANVSAAVQKYFGADMQLAYVCGPQKFVKDCTEALVSTGVPESHILTDDP | not soluble |
| MKKSLKQKIVSSLLAVSLAVSLAPIGQANADSTSEIKQTSSITKQVDASRAIEHIRFLSETIGPRPGGTKSEEWASRYVGMQLKSMGYEVEYQPFQVPDQYVGFIESPLSTKRNWQTGAAPNALISTESVTAPLIFVQGGTKLEDIPNEVNGKIVLFERGTTVADYNKQVENAVSKGAKGVLLYSLIGGRGNYGQTFNPRLTKKQSIPVFGLAYAQGNAFKEEIAKKGTTILSLKARHESNLTSLNVIAKKKPKNSTGNEKAVVVSSHYDSVVGAPGANDNASGTGLVLELARAFQNVETDKEIRFIAFGSEETGLLGSDYYVNSLSPKERDRILGVFNADMVATNYDKAKNLYAMMPNGSPNLVTDAALQAGKQLNNDLVLQGKFGSSDHVPFAEVGIPAALFIWMGVDSWNPLIYHIEKVYHTPQDNVFENISPERMKMALEVIGTGVYNTLQQSVTQTEQKAA | not soluble |
| MTTAKPNTVEQFEHVIDICREVFQKKLHDYGASWRVMRPSSLTDQLYIKANRIRNIQMKGLSKVDEGVESEFIGVVNYGVIALIQLELGVADTPKMETEEALRLYDLKIREAMSLMLDKNHDYGEAWRQMRVSSFADLILTKVFRTKEIEDLGGDTYISEGVDANYMDMINYAIFALIQLNG | not soluble |
| MKCVFVTVGTTSFDDLIACVSAPDSLQKIESLGYNRLILQIGRGTVVPEPFSTESFTLDVYRYKDSLKEDIQKADLVISHAGAGSCLETLEKGKPLVVVINEKLMNNHQLELAKQLHKEGHLFYCTCSTLPGLLQSMDLSTLKCYPPGQPEKFSAFLDKVVGLQK | soluble |
| HHHHHHSSGLVPRGSGMKETAAAKFERQHMDSPDLGTDDDDKASSSANECISVKGRIYSILKQIGSGGSSKVFQVLNEKKQIYAIKYVNLEEADNQTLDSYRNEIAYLNKLQQHSDKIIRLYDYEITDQYIYMVMECGNIDLNSWLKKKKSIDPWERKSYWKNMLEAVHTIHQHGIVHSDLKPANFLIVDGMLKLIDFGIANQMQPDTTSVVKDSQVGAVNYMPPEAIKDMSSSRENGKSKSKISPKSDVWSLGCILYYMTYGKTPFQQIINQISKLHAIIDPNHEIEFPDIPEKDLQDVLKCCLKRDPKQRISIPELLAHPYVQIQTHPVNQMAKGTTEEMKYVLGQLVGLNSPNSILKAAKTLYEHYSGGESHNSSSSKTFEKKRGKK | soluble |
| NSSDYRALFLNDVPMMDARAPVEFSKGAFPGVINLPLMNDIERQKVGTCYKQHGQDAAIQLGHQLVCGQVKDERVEAWVEFARANPNGYLYCFRGGLRSQTVQRWLKDAGVDYPRILGGYKAMRTFLLDTLHEAVTE | not soluble |
| MCIGMDIRDFFAQSAGRWFSQRTSHHLAFKQTESGKSQLTIELLSVDDPAVIALCQQYDMDPAWAVCGARVSWDGTMEWDNEKHEGSTVLVPIMDQGSRMEGKLLREMGYAEKAPVAGRFSMGSDGALTLITEYETIYSEERLWFASPNLRLRTSILKRFGGFSMASFCSEIRLGVTQPANSLEHHHHHH | soluble |
| MGSDKIHHHHHHMTIDDFYSFITLYKTRNISDAAIALNITQSALSKRLRNMQQELDTALISTRNKRQLTITESGEVFFRYAQTLTAQYQLLQQELLDYRELRRGTIQIGSVPVMAQYGLASKMSQFMQDYPQINFSLAELEGADLLTQLQHQSFDLGILRDVQSQQLNHSQFDAVTLTDDELKVVLPSDHPLAHQTSIQLPDLRPFDVVTLSPGSGVYERISERYQQAGFTPNIRFSTPHIETLLAMIAHTDRVTFLFAKSVAPFMTADFVMRPFTDPIISHLQLVYPHGTLSPAAQRFIHYLTD | not soluble |
| MSLSGSITVPNYSDTNRVPGLYFALDNSKANTASVTRRVLILGQTIAGSGAPNVATLSAGYSDAVAKYGAASQCARMVSAYRAIDAQGEVWVLPLADDTSAQAATGKVTVSGTATSAGTLPLYVGDQLISVAVDTGDTAATVAANIATATAAVSGLPAGASAAEGVVTFTALNKGQSGNDILLGVALLGTAGGQAVPDGLTIALTQFSGGTADPTTLATVLALQGERVYDLIIHPYTDSGSLTALKIWLNDTAGRWSPMLQLYGHAITAYRGTYGAATSLGLAQNDQHATIMPIGDSPSDPLTWAAQIGARTAMSMRSNPALPITAVSLTVMPPTDVGRYSSEQRNSLLYDGLSTFTVDDSGTVNIERLVTTYQTNASGLPDNSYLDIETMLTAEICMQDMRSYLAGQYGGCILVADGTKISAGAKATTAKLIGKACASRYRWQTTQLWVQNADNFAANIVAENAGNGVVKLLMPYDFANQLRIIAGSVQFVKSEGHHHHHH | soluble |
